{"source": "the supplement of paper PMC7877785", "test": "self-splicing fitness, log relative to wild type (ln ratio); higher = more splicing; Tetrahymena group I intron in knt gene, E. coli kanamycin selection, DiMSum; sequences stand for … in CUCUCU…GGAGGGAAAAGUUAUCAGGCAUGCACCUGGUAGCUAGUCUUUAAACCAAUAGAUUGCAUCGGUUUAAAAGGCAAGACCGUCAAAUUGCGGGAAAGGGGUCAACAGCCGUUCAGUACCAAGUCUCAGGGGAAACUUUGAGAUGGCCUUGCAAAGGGUAUGGUAAUAAGCUGACGGACAUGGUCCUAACCACGCAGCCAAGUCCUAAGUCAACAGAUCUUCUGUUGAUAUGGAUGCAGUUCACAGACUAAAUGUCGGUCGGGGAAGAUGUAUUCUUCUCAUAAGAUAUAGUCGGACCUCUCCUUAAUGGGAGCUAGCGGAUGAAGUGAUGCAACACUGGAGCCGCUGGGAACUAAUUUGUAUGCGAAAGUAUAUUGAUUAGUUUUGGAGUACUCGUGGUCG", "procedure,_shortened": "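Six replicate transformations of E. coli BL21(DE3) with a pET-22b(+) library were grown overnight at 37°C or 30°C. The library randomised all eight P1ex-region intron nucleotides, the intron lying in the knt kanamycin-resistance gene, and plates were LB agar with or without 25 μg/mL kanamycin plus 100 μg/mL carbenicillin, 50 μM IPTG and 0.2% rhamnose. Pooled colonies were amplicon-sequenced on an Illumina HiSeq 2500, and fitness is the DiMSum error-weighted combination of wild-type-normalised replicate fold changes, kanamycin versus none.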", "note": "± gives the uncertainty stated by the source.", "data": [{"sequence": "UAGUAGCAAUAUUACGGAUG", "values": [{"measurement": "self-splicing fitness (ln)", "setting": "30 °C", "result": "-0.956 ± 0.084"}, {"measurement": "self-splicing fitness (ln)", "setting": "37 °C", "result": "-0.222 ± 0.087"}]}, {"sequence": "CAGUAGCAAUAUUACGCCAC", "values": [{"measurement": "self-splicing fitness (ln)", "setting": "30 °C", "result": "-2.54 ± 0.3"}]}, {"sequence": "CUGAAGCAAUAUUACGUUCA", "values": [{"measurement": "self-splicing fitness (ln)", "setting": "30 °C", "result": "-1.87 ± 0.11"}, {"measurement": "self-splicing fitness (ln)", "setting": "37 °C", "result": "-0.567 ± 0.12"}]}, {"sequence": "CCCGAGCAAUAUUACGUCUU", "values": [{"measurement": "self-splicing fitness (ln)", "setting": "30 °C", "result": "-3.38 ± 0.18"}, {"measurement": "self-splicing fitness (ln)", "setting": "37 °C", "result": "-2.16 ± 0.19"}]}, {"sequence": "CAUGAGCAAUAUUACGGCCU", "values": [{"measurement": "self-splicing fitness (ln)", "setting": "30 °C", "result": "-2.67 ± 0.19"}, {"measurement": "self-splicing fitness (ln)", "setting": "37 °C", "result": "-2.19 ± 0.25"}]}, {"sequence": "UCAAAGCAAUAUUACGUGAG", "values": [{"measurement": "self-splicing fitness (ln)", "setting": "30 °C", "result": "-0.64 ± 0.046"}, {"measurement": "self-splicing fitness (ln)", "setting": "37 °C", "result": "-0.25 ± 0.071"}]}, {"sequence": "AGCCAGCAAUAUUACGGCAA", "values": [{"measurement": "self-splicing fitness (ln)", "setting": "30 °C", "result": "-0.763 ± 0.067"}, {"measurement": "self-splicing fitness (ln)", "setting": "37 °C", "result": "-0.321 ± 0.075"}]}, {"sequence": "CGUCAGCAAUAUUACGGAAC", "values": [{"measurement": "self-splicing fitness (ln)", "setting": "30 °C", "result": "-2.22 ± 0.27"}, {"measurement": "self-splicing fitness (ln)", "setting": "37 °C", "result": "-2.61 ± 0.25"}]}, {"sequence": "AAACAGCAAUAUUACGCCUA", "values": [{"measurement": "self-splicing fitness (ln)", "setting": "30 °C", "result": "-1.13 ± 0.086"}, {"measurement": "self-splicing fitness (ln)", "setting": "37 °C", "result": "-0.0496 ± 0.075"}]}, {"sequence": "GUGAAGCAAUAUUACGAUCU", "values": [{"measurement": "self-splicing fitness (ln)", "setting": "30 °C", "result": "-1.26 ± 0.13"}, {"measurement": "self-splicing fitness (ln)", "setting": "37 °C", "result": "-0.0185 ± 0.12"}]}, {"sequence": "GUCCAGCAAUAUUACGGUGC", "values": [{"measurement": "self-splicing fitness (ln)", "setting": "30 °C", "result": "-0.903 ± 0.059"}, {"measurement": "self-splicing fitness (ln)", "setting": "37 °C", "result": "-0.726 ± 0.071"}]}, {"sequence": "CGGCAGCAAUAUUACGAGAG", "values": [{"measurement": "self-splicing fitness (ln)", "setting": "30 °C", "result": "-3.21 ± 0.23"}, {"measurement": "self-splicing fitness (ln)", "setting": "37 °C", "result": "-1.44 ± 0.2"}]}, {"sequence": "AGGAAGCAAUAUUACGUUGG", "values": [{"measurement": "self-splicing fitness (ln)", "setting": "30 °C", "result": "-3.22 ± 0.3"}, {"measurement": "self-splicing fitness (ln)", "setting": "37 °C", "result": "-2.33 ± 0.17"}]}, {"sequence": "GCGUAGCAAUAUUACGCAUG", "values": [{"measurement": "self-splicing fitness (ln)", "setting": "37 °C", "result": "-2.21 ± 0.23"}]}, {"sequence": "AUUCAGCAAUAUUACGCCAC", "values": [{"measurement": "self-splicing fitness (ln)", "setting": "37 °C", "result": "-2.32 ± 0.42"}]}, {"sequence": "UGCGAGCAAUAUUACGCGAU", "values": [{"measurement": "self-splicing fitness (ln)", "setting": "30 °C", "result": "-2.39 ± 0.42"}]}, {"sequence": "GUCCAGCAAUAUUACGUACC", "values": [{"measurement": "self-splicing fitness (ln)", "setting": "30 °C", "result": "-1.08 ± 0.15"}, {"measurement": "self-splicing fitness (ln)", "setting": "37 °C", "result": "-1.74 ± 0.24"}]}, {"sequence": "UCUAAGCAAUAUUACGCGUC", "values": [{"measurement": "self-splicing fitness (ln)", "setting": "30 °C", "result": "-3.36 ± 0.24"}, {"measurement": "self-splicing fitness (ln)", "setting": "37 °C", "result": "-2.01 ± 0.18"}]}, {"sequence": "ACACAGCAAUAUUACGUGUG", "values": [{"measurement": "self-splicing fitness (ln)", "setting": "30 °C", "result": "-3.55 ± 0.1"}, {"measurement": "self-splicing fitness (ln)", "setting": "37 °C", "result": "-1.44 ± 0.065"}]}, {"sequence": "GCCGAGCAAUAUUACGCGCU", "values": [{"measurement": "self-splicing fitness (ln)", "setting": "30 °C", "result": "-1.78 ± 0.2"}, {"measurement": "self-splicing fitness (ln)", "setting": "37 °C", "result": "-2.77 ± 0.34"}]}, {"sequence": "AAACAGCAAUAUUACGUCGC", "values": [{"measurement": "self-splicing fitness (ln)", "setting": "30 °C", "result": "-3.37 ± 0.21"}, {"measurement": "self-splicing fitness (ln)", "setting": "37 °C", "result": "-2.92 ± 0.23"}]}, {"sequence": "GCAGAGCAAUAUUACGCCAA", "values": [{"measurement": "self-splicing fitness (ln)", "setting": "30 °C", "result": "-2.73 ± 0.38"}, {"measurement": "self-splicing fitness (ln)", "setting": "37 °C", "result": "-2.72 ± 0.44"}]}, {"sequence": "UAAAAGCAAUAUUACGGUGA", "values": [{"measurement": "self-splicing fitness (ln)", "setting": "30 °C", "result": "-1.15 ± 0.077"}, {"measurement": "self-splicing fitness (ln)", "setting": "37 °C", "result": "-0.788 ± 0.076"}]}, {"sequence": "GAAGAGCAAUAUUACGUGGC", "values": [{"measurement": "self-splicing fitness (ln)", "setting": "30 °C", "result": "-2.97 ± 0.24"}, {"measurement": "self-splicing fitness (ln)", "setting": "37 °C", "result": "-3.01 ± 0.33"}]}, {"sequence": "UGUCAGCAAUAUUACGUAAC", "values": [{"measurement": "self-splicing fitness (ln)", "setting": "30 °C", "result": "-2.38 ± 0.24"}, {"measurement": "self-splicing fitness (ln)", "setting": "37 °C", "result": "0.145 ± 0.26"}]}, {"sequence": "UACAAGCAAUAUUACGCUCU", "values": [{"measurement": "self-splicing fitness (ln)", "setting": "30 °C", "result": "-1.36 ± 0.087"}, {"measurement": "self-splicing fitness (ln)", "setting": "37 °C", "result": "-0.0585 ± 0.11"}]}, {"sequence": "AUACAGCAAUAUUACGAUCC", "values": [{"measurement": "self-splicing fitness (ln)", "setting": "30 °C", "result": "-0.368 ± 0.12"}, {"measurement": "self-splicing fitness (ln)", "setting": "37 °C", "result": "-1.59 ± 0.15"}]}, {"sequence": "ACUCAGCAAUAUUACGGGAG", "values": [{"measurement": "self-splicing fitness (ln)", "setting": "30 °C", "result": "-1.56 ± 0.051"}, {"measurement": "self-splicing fitness (ln)", "setting": "37 °C", "result": "-1.11 ± 0.067"}]}, {"sequence": "AGACAGCAAUAUUACGAUCG", "values": [{"measurement": "self-splicing fitness (ln)", "setting": "30 °C", "result": "-0.599 ± 0.072"}, {"measurement": "self-splicing fitness (ln)", "setting": "37 °C", "result": "0.599 ± 0.11"}]}, {"sequence": "AUGAAGCAAUAUUACGAGAU", "values": [{"measurement": "self-splicing fitness (ln)", "setting": "30 °C", "result": "-2.93 ± 0.21"}, {"measurement": "self-splicing fitness (ln)", "setting": "37 °C", "result": "-1.28 ± 0.21"}]}, {"sequence": "GAACAGCAAUAUUACGGGGU", "values": [{"measurement": "self-splicing fitness (ln)", "setting": "30 °C", "result": "-2.39 ± 0.081"}, {"measurement": "self-splicing fitness (ln)", "setting": "37 °C", "result": "-2.57 ± 0.15"}]}, {"sequence": "AGGAAGCAAUAUUACGAUGU", "values": [{"measurement": "self-splicing fitness (ln)", "setting": "30 °C", "result": "-1.51 ± 0.087"}, {"measurement": "self-splicing fitness (ln)", "setting": "37 °C", "result": "-0.634 ± 0.1"}]}, {"sequence": "CUCUAGCAAUAUUACGGACU", "values": [{"measurement": "self-splicing fitness (ln)", "setting": "37 °C", "result": "-4.16 ± 0.39"}]}, {"sequence": "GCUAAGCAAUAUUACGGCAA", "values": [{"measurement": "self-splicing fitness (ln)", "setting": "30 °C", "result": "-2.17 ± 0.21"}, {"measurement": "self-splicing fitness (ln)", "setting": "37 °C", "result": "-0.981 ± 0.16"}]}, {"sequence": "GCUGAGCAAUAUUACGGCUA", "values": [{"measurement": "self-splicing fitness (ln)", "setting": "30 °C", "result": "-2.46 ± 0.19"}, {"measurement": "self-splicing fitness (ln)", "setting": "37 °C", "result": "-1.66 ± 0.19"}]}, {"sequence": "CAGCAGCAAUAUUACGCUUG", "values": [{"measurement": "self-splicing fitness (ln)", "setting": "30 °C", "result": "-2.88 ± 0.12"}, {"measurement": "self-splicing fitness (ln)", "setting": "37 °C", "result": "-2.61 ± 0.19"}]}, {"sequence": "UGAGAGCAAUAUUACGGAGC", "values": [{"measurement": "self-splicing fitness (ln)", "setting": "30 °C", "result": "-2.21 ± 0.18"}, {"measurement": "self-splicing fitness (ln)", "setting": "37 °C", "result": "-1.94 ± 0.19"}]}, {"sequence": "GUUGAGCAAUAUUACGGUUA", "values": [{"measurement": "self-splicing fitness (ln)", "setting": "30 °C", "result": "-1.88 ± 0.28"}, {"measurement": "self-splicing fitness (ln)", "setting": "37 °C", "result": "-2.09 ± 0.24"}]}, {"sequence": "UAGUAGCAAUAUUACGUGCG", "values": [{"measurement": "self-splicing fitness (ln)", "setting": "30 °C", "result": "-1.52 ± 0.12"}, {"measurement": "self-splicing fitness (ln)", "setting": "37 °C", "result": "-0.311 ± 0.15"}]}]}
